Assay results from patent US20040002128.

T1: AC-DEVD-CHO
T1 chain: DEVD

T2: CFP-YFP fusion protein, polyhistidine-tagged (bacterial version, no caspase substrate sequence)
T2 chain: SGLRSRAQASNS

T3: sensor A, polyhistidine-tagged recombinant FRET probe (bacterial version) (not fully specified)
T3 chain: SGLRSGGDEVDGGSNS

T4: sensor B, polyhistidine-tagged recombinant FRET probe (bacterial version) (not fully specified)
T4 chain: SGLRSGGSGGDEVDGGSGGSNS


What was measured:
[1] = target: sensor C8, polyhistidine-tagged
[2] = target: sensor C8A, polyhistidine-tagged
AC-DEVD-CHO = target: T1, AC-DEVD-CHO
[3] = target: T2, CFP-YFP fusion protein, …
[4] = target: T3, sensor A, polyhistidine-tagged …
[5] = target: T4, sensor B, polyhistidine-tagged …

Row | Protein | caspase-8 concentration that reduces the FRET effect by 50% (sensor 22.45 nM, one hour) [1] | caspase-8 needed for 50% FRET reduction, against sensor C8A [1] | cleavage, Western blot [1] | fraction of the sensor cleaved, band intensity on Western blot, caspase-8 216 nM, one hour [1] | caspase-8 concentration that reduces the FRET effect by 50% (sensor 22.45 nM, one hour) [2] | cleavage, Western blot [2] | fraction of the sensor cleaved, band intensity on Western blot, caspase-8 216 nM, one hour [2] | cleavage of sensor A by caspase-3, Western blot (AC-DEVD-CHO) | cleavage, Western blot [3] | emission spectrum after caspase-3 [3] | cleavage, Western blot [4] | decrease of the emission ratio of YFP/CFP [4] | dosage-dependent caspase-3 cleavage assay, normalized emission ratio (YFP/CFP) [4] | emission ratio of YFP/CFP before and after caspase-3 [4] | cleavage, Western blot [5] | decrease of the emission ratio of YFP/CFP [5] | dosage-dependent caspase-3 cleavage assay, normalized emission ratio (YFP/CFP) [5] | emission ratio of YFP/CFP before and after caspase-3 [5]
1 | caspase-8 (protein) SESQTLDKVYQMKSKPRGYCLIINNHNFAKAREKVPKLHSIRDRNGTHLDAGALTTTFEELHFEIKPHDDCTVEQIYEILKIYQLMDHSNMDCFICCILSHGDKGIIYGTDGQEAPIYELTSQFTGLKCPSLAGKPKVFFIQACQGDNYQKGIPVETDSEEQPYLEMDLSSPQTRYIPDEADFLLGMATVNNCVSYRNPAEGTWYIQSLCQSLRERCPRGDDILTILTEVNYEVSNKDDKKNMGKQMPQPTFTLRKKLVFPSD | about 5-fold more caspase-8 (3.4 nM) was required to produce the same FRET reduction for sensor C8 | about 5-fold more caspase-8 (3.4 nM) was required to produce the same FRET reduction for sensor C8 | both sensor C8 and C8A could be cleaved by caspase-8 to release a CFP and a YFP molecule | only 58% of the sensor C8 protein was cleaved under the same condition | about 0.71 nM of caspase-8 was needed to reduce 50% of the FRET effect for sensor C8A | both sensor C8 and C8A could be cleaved by caspase-8 to release a CFP and a YFP molecule | 95% of the sensor C8A protein was cleaved after incubation with caspase-8 (216 nM) for one hour | – | – | – | – | – | – | – | – | – | – | –
2 | caspase-3 (protein) SGISLDNSYKMDYPEMGLCIIINNKNFHKSTGMTSRSGTDVDAANLRETFRNLKYEVRNKNDLTREEIVELMRDVSKEDHSKRSSFVCVLLSHGEEGIIFGTNGPVDLKKITNFFRGDRCRSLTGKPKLFIIQACRGTELDCGIETDSGVDDDMACHKIPVEADFLYAYSTAPGYYSWRNSKDGSWFIQSLCAMLKQYADKLEFMHILTRVNRKVATEFESFSFDATFHAKKQIPCIVSMLTKELYFYH | – | – | – | – | – | – | – | In the presence of caspase-3 inhibitor (AC-DEVD-CHO), no FRET probe (sensor A) was cleaved | no cleavage was seen for CFP-YFP fusion protein under the same condition | no change for the emission spectrum was observed from the CFP-YFP fusion protein which lacks the substrate sequence | caspase-3 can cleave almost all the sensor A and sensor B protein | decreased by 4-5 fold | both FRET probes were highly sensitive to caspase-3, although sensor A appeared to be slightly more sensitive than sensor B | from 3.02 to 0.59 for sensor A | caspase-3 can cleave almost all the sensor A and sensor B protein | decreased by 4-5 fold | both FRET probes were highly sensitive to caspase-3, although sensor A appeared to be slightly more sensitive than sensor B | from 2.76 to 0.59 for sensor B
